Data on 3 substances can be found in US20080125498.

The target in data set [1] is endogenous plasminogen in mouse brain slices (UniProt P20918).
Data set [2] has as its system recombinant NR1-1b subunit transiently expressed in HEK 293 cells.
For data set [3], the target named is T1, protease-activated receptor 1 (PAR1), mouse, endogenous in hippocampal slices and cultured astrocytes (UniProt P30558).
T1 sequence: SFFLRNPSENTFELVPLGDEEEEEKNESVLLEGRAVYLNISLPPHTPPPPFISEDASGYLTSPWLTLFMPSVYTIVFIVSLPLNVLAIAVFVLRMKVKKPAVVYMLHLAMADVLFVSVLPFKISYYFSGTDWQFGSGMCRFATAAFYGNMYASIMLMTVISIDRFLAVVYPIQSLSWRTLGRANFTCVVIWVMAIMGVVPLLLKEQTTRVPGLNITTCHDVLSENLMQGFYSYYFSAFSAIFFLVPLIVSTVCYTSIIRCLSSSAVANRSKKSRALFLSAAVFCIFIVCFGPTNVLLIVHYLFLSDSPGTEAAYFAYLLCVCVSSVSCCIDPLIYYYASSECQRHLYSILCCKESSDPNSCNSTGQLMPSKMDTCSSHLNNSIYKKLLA

In data set [4] the target is NMDA receptor NR1 subunit in adult rat brain membranes (UniProt P35439).
The subject of data set [5] is N-terminal myc-tagged NR1-1a.

Chain of endogenous plasminogen in mouse brain slices (P20918 20-812): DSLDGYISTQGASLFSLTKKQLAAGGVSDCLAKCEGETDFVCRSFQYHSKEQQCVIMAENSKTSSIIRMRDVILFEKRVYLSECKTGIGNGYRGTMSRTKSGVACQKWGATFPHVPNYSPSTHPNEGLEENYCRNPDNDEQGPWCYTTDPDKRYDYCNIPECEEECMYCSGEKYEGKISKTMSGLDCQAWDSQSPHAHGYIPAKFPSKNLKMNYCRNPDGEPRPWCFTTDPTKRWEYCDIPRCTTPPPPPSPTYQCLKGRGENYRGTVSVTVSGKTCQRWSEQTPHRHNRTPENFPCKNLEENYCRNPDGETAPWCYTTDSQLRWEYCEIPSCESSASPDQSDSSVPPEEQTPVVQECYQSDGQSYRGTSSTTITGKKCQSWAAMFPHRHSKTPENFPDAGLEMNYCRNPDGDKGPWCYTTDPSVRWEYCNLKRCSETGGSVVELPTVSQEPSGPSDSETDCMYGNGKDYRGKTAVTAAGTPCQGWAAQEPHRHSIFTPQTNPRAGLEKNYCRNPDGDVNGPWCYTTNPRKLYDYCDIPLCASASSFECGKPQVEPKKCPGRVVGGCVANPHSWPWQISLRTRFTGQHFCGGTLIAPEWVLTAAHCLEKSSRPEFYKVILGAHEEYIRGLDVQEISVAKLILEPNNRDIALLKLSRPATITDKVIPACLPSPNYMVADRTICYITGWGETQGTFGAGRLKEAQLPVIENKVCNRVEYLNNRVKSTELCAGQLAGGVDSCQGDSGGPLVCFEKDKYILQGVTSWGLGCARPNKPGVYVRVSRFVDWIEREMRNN
Chain of tissue plasminogen activator (P00750 36-562): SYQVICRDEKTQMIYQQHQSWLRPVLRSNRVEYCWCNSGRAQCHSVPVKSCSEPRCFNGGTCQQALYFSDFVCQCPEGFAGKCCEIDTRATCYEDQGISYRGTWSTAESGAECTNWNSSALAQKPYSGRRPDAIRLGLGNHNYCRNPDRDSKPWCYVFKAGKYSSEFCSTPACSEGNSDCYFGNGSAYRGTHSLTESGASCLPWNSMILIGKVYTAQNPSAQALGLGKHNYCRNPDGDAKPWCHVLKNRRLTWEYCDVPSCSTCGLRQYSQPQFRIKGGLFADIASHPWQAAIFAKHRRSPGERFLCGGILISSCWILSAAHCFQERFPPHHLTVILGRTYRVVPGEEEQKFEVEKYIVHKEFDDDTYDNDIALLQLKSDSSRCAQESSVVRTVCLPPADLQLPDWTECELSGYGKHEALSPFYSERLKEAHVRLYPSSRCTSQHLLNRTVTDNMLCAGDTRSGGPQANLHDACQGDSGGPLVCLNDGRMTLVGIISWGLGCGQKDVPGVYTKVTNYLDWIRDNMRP

For tissue plasminogen activator, the “PI hydrolysis in hippocampal slices” value in data set [1] is recorded as “application of tPA did not increase PI hydrolysis in plasminogen-deficient mice”.
With alpha-thrombin, the “proteolysis of recombinant NR1-1b (immunoblot)” value in data set [2] was 10-1000 U/ml of thrombin cleaved both homomeric NR1-1b receptors (n=9/10 experiments) and heteromeric NR1-1b/NR2B receptors (n=6/6 experiments). For the same substance, the “PI hydrolysis in hippocampal slices” value in data set [3] was “Both thrombin and plasmin increased PI hydrolysis in wild type hippocampus, but not in the hippocampus of PAR1-/- mice”. Also, in data set [4], the “NR1 cleavage product in CA1 region after 15 minutes of 3 U/ml thrombin on slices” value was “no NR1 cleavage product was observed in immunoblots of membranes obtained from the CA1 region microdissected immediately following the experiment”; the “maximal percent of NR1 cleaved, striatal membranes” value is recorded as “the maximal observed cleavage of 52% suggests a thrombin resistant population of NR1 subunits exists”; the “percent of NR1 cleaved, all brain regions except striatum, 1-3 micromolar thrombin” value is reported as 1-3 micromolar thrombin cleaved 100% or subunits in all brain regions except striatum; the “percent of NR1 cleaved, cerebellar, cortical and brainstem membranes, 300 nM thrombin” value is “cerebellar (n=7), cortical (n=5), and brainstem (n=5) NR1 subunits were insensitive to cleavage by 300 nM thrombin (30 U/ml)”. In addition, in data set [4], the “percent of NR1 cleaved, hippocampal membranes, 30 nM thrombin” value is recorded as 30 nM thrombin (3 U/ml) cleaved 20% of the NR1 subunit in hippocampal membranes (n=7); the “percent of NR1 cleaved, striatal membranes, 30 nM thrombin” value was 50% of NR1 in striatal membranes (n=10); the “proteolysis of NR1 (immunoblot)” value was “Incubation of brain membranes with thrombin for 1 hour at 37 °C resulted in the appearance of a new band that was 12 kD (n=10) lower in molecular weight than the parent band”. Further, the “proteolysis of myc-tagged NR1-1a (immunoblot)” value in data set [5] is “Thrombin induced a similar shift in molecular weight for N-terminal myc-tagged NR1 as observed for the recombinant and native receptors detected with mAb54.1”.
In the case of plasmin, in data set [3], the “PI hydrolysis after tPA application to hippocampal slices” value was “Application of tPA to wild type hippocampal slices significantly increased PI hydrolysis compared with application to PAR1-/-hippocampal slices”; the “PI hydrolysis in hippocampal slices” value is “Both thrombin and plasmin increased PI hydrolysis in wild type hippocampus, but not in the hippocampus of PAR1-/- mice”.
